From the supplement of paper PMC11246515 come the findings set out here.

± gives the standard deviation of the averaged measurements.

The nature of this data set: total protein half-life in vivo (active degradation + dilution); higher = more stable protein.
Where [1] appears, read: E. coli NCM3722 delta-clpP, growth: N-lim chemostat, doubling time 6 h.
Setting [2] is: E. coli NCM3722 delta-hslV, growth: N-lim chemostat, doubling time 6 h.
The mark [3] stands for this setting: E. coli NCM3722 delta-lon, growth: N-lim chemostat, doubling time 6 h.
Where [4] appears, read: E. coli NCM3722 delta-smpB, growth: N-lim chemostat, doubling time 6 h.
[5] abbreviates: wild type E. coli NCM3722, growth: C-lim chemostat, doubling time 3 h.
Setting [6] is: wild type E. coli NCM3722, growth: C-lim chemostat, doubling time 6 h.
[7] abbreviates: wild type E. coli NCM3722, growth: C-lim chemostat, doubling time 12 h.
Where [8] appears, read: wild type E. coli NCM3722, growth: N-lim chemostat, doubling time 6 h.
Setting [9] is: wild type E. coli NCM3722, growth: N-lim chemostat, doubling time 12 h.
The mark [10] stands for this setting: wild type E. coli NCM3722, growth: P-lim chemostat, doubling time 6 h.
Where [11] appears, read: wild type E. coli NCM3722, growth: P-lim chemostat, doubling time 12 h.
Where [12] appears, read: E. coli NCM3722 delta-clpP delta-lon delta-hslV, growth: N-lim chemostat, doubling time 6 h.

Take “MSGWPRIYYKLLNLPLSILVKSKSIPADPAPELGLDTSRPIMYVLPYNSKADLLTLRAQCLAHDLPDPLEPLEIDGTLLPRYVFIHGGPRVFTYYTPKEESIKLFHDYLDLHRSNPNLDVQMVPVSVMFGRAPGREKGEVNPPLRMLNGVQKFFAVLWLGRDSFVRFSPSVSLRRMADEHGTDKTIAQKLARVARMHFARQRLAAVGPRLPARQDLFNKLLASRAIAKAVEDEARSKKISHEKAQQNAIALMEEIAANFSYEMIRLTDRILGFTWNRLYQGINVHNAERVRQLAHDGHELVYVPCHRSHMDYLLLSYVLYHQGLVPPHIAAGINLNFWPAGPIFRRLGAFFIRRTFKGNKLYSTVFREYLGELFSRGYSVEYFVEGGRSRTGRLLDPKTGTLSMTIQAMLRGGTRPITLIPIYIGYEHVMEVGTYAKELRGATKEKESLPQMLRGLSKLRNLGQGYVNFGEPMPLMTYLNQHVPDWRESIDPIEAVRPAWLTPTVNNIAADLMVRINNAGAANAMNLCCTALLASRQRSLTREQLTEQLNCYLDLMRNVPYSTDSTVPSASASELIDHALQMNKFEVEKDTIGDIIILPREQAVLMTYYRNNIAHMLVLPSLMAAIVTQHRHISRDVLMEHVNVLYPMLKAELFLRWDRDELPDVIDALANEMQRQGLITLQDDELHINPAHSRTLQLLAAGARETLQRYAITFWLLSANPSINRGTLEKESRTVAQRLSVLHGINAPEFFDKAVFSSLVLTLRDEGYISDSGDAEPAETMKVYQLLAELITSDVRLTIESATQGEG [P0A7A7]”: the “total protein half-life in vivo” value under setting [1] was 7.2 ± 0.25 h; the “total protein half-life in vivo” value under setting [2] is 6.63 ± 0.61 h; the “total protein half-life in vivo” value under setting [3] turned out to be 6.38 ± 0.65 h; the “total protein half-life in vivo” value under setting [4] stood at 6.36 ± 0.2 h; the “total protein half-life in vivo” value under setting [5] is 3.37 ± 0.17 h; the “total protein half-life in vivo” value under setting [6] was 6.4 ± 0.11 h. In addition, the “total protein half-life in vivo” value turned out to be 12.2 ± 1.3 h under setting [7]; 6.249 ± 0.032 h under setting [8]; 13.3 ± 0.35 h under setting [9]; 6.79 ± 0.28 h under setting [10]; 13.4 ± 1.5 h under setting [11].
For the sequence “MYTSGYAHRSSSFSSAASKIARVSTENTTAGLISEVVYREDQPMMTQLLLLPLLQQLGQQSRWQLWLTPQQKLSREWVQASGLPLTKVMQISQLSPCHTVESMVRALRTGNYSVVIGWLADDLTEEEHAELVDAANEGNAMGFIMRPVSASSHATRQLSGLKIHSNLYH [P0AFZ5]”, the “total protein half-life in vivo” value reads like this: under setting [12], 5.07 ± 0.91 h; under setting [3], 0.671 ± 0.059 h.
“MLHKKTLLFAALSAALWGGATQAADAAVVASLKPVGFIASAIADGVTETEVLLPDGASEHDYSLRPSDVKRLQNADLVVWVGPEMEAFMQKPVSKLPGAKQVTIAQLEDVKPLLMKSIHGDDDDHDHAEKSDEDHHHGDFNMHLWLSPEIARATAVAIHGKLVELMPQSRAKLDANLKDFEAQLASTETQVGNELAPLKGKGYFVFHDAYGYFEKQFGLTPLGHFTVNPEIQPGAQRLHEIRTQLVEQKATCVFAEPQFRPAVVESVARGTSVRMGTLDPLGTNIKLGKTSYSEFLSQLANQYASCLKGD”: the “total protein half-life in vivo” value under setting [12] amounted to 3.68 ± 0.41 h; the “total protein half-life in vivo” value under setting [1] came out at 4.85 ± 0.4 h; the “total protein half-life in vivo” value under setting [2] is 5.99 ± 0.29 h; the “total protein half-life in vivo” value under setting [3] came out at 7.17 ± 0.96 h; the “total protein half-life in vivo” value under setting [5] was 2.86 ± 0.12 h; the “total protein half-life in vivo” value under setting [6] was 5.54 ± 0.29 h. Moreover, the “total protein half-life in vivo” value is, setting by setting: under setting [7], 9.55 ± 1.5 h; under setting [9], 13.6 ± 1.4 h; under setting [10], 5.24 ± 0.2 h; under setting [11], 11.4 ± 2.3 h.
Turning to “MEAIKGSDVNVPDAVFAWMLDGRGGVKPLENTDVIDEAHPCWLHLNYVHHDSAQWLATTPLLPNNVRDALAGESTRPRVSRLGEGTLITLRCINGSTDERPDQLVAMRVYMDGRLIVSTRQRKVLALDDVVSDLEEGTGPTDCGGWLVDVCDALTDHSSEFIEQLHDKIIDLEDNLLDQQIPPRGFLALLRKQLIVMRRYMAPQRDVYARLASERLPWMSDDQRRRMQDIADRLGRGLDEIDACIARTGVMADEIAQVMQENLARRTYTMSLMAMVFLPSTFLTGLFGVNLGGIPGGGWQFGFSIFCILLVVLIGGVALWLHRSKWL”, the “total protein half-life in vivo” value under setting [12] was 6.29 ± 0.86 h; the “total protein half-life in vivo” value under setting [1] was found to be 5.99 ± 0.61 h; the “total protein half-life in vivo” value under setting [2] stood at 5.56 ± 0.95 h; the “total protein half-life in vivo” value under setting [3] was found to be 6.34 ± 0.75 h; the “total protein half-life in vivo” value under setting [4] came out at 5.71 ± 0.2 h; the “total protein half-life in vivo” value under setting [5] was 3.06 ± 0.47 h. The “total protein half-life in vivo” value by setting is: under setting [6], 6.04 ± 0.35 h; under setting [7], 11.5 ± 0.33 h; under setting [8], 6.07 ± 0.2 h; under setting [9], 11.9 ± 0.9 h; under setting [10], 5.31 ± 0.072 h; under setting [11], 8.98 ± 0.42 h.
As to “MAVSAKYDEFNHWWATEGDWVEEPNYRRNGMSGVQCVERNGKKLYVKRMTHHLFHSVRYPFGRPTIVREVAVIKELERAGVIVPKIVFGEAVKIEGEWRALLVTEDMAGFISIADWYAQHAVSPYSDEVRQAMLKAVALAFKKMHSINRQHGCCYVRHIYVKTEGNAEAGFLDLEKSRRRLRRDKAINHDFRQLEKYLEPIPKADWEQVKAYYYAM”, the “total protein half-life in vivo” value under setting [12] turned out to be 5.26 ± 0.28 h; the “total protein half-life in vivo” value under setting [1] was found to be 1.09 h; the “total protein half-life in vivo” value under setting [2] was determined as 3.57 h; the “total protein half-life in vivo” value under setting [3] was found to be 1.15 ± 0.09 h; the “total protein half-life in vivo” value under setting [4] is 0.534 h; the “total protein half-life in vivo” value under setting [8] came to 0.927 h. Moreover, the “total protein half-life in vivo” value under setting [10] is 0.144 h.
Regarding “MNQRNASMTVIGAGSYGTALAITLARNGHEVVLWGHDPEHIATLERDRCNAAFLPDVPFPDTLHLESDLATALAASRNILVVVPSHVFGEVLRQIKPLMRPDARLVWATKGLEAETGRLLQDVAREALGDQIPLAVISGPTFAKELAAGLPTAISLASTDQTFADDLQQLLHCGKSFRVYSNPDFIGVQLGGAVKNVIAIGAGMSDGIGFGANARTALITRGLAEMSRLGAALGADPATFMGMAGLGDLVLTCTDNQSRNRRFGMMLGQGMDVQSAQEKIGQVVEGYRNTKEVRELAHRFGVEMPITEEIYQVLYCGKNAREAALTLLGRARKDERSSH [P0A6S7]”, the “total protein half-life in vivo” value was determined as 5.183 ± 0.013 h under setting [12]; 5.35 ± 0.8 h under setting [1]; 4.8 ± 0.097 h under setting [2]; 4.88 ± 0.27 h under setting [3]; 4.73 ± 0.34 h under setting [4]; 3.3022 ± 0.00023 h under setting [5]. Also, the “total protein half-life in vivo” value was 5.8 ± 0.063 h under setting [6]; 10.8 ± 1.8 h under setting [7]; 4.99 ± 0.28 h under setting [8]; 8.16 h under setting [9]; 5.73 ± 0.15 h under setting [10]; 12.7 ± 2.1 h under setting [11].
Turning to “MSFATISVIGLGYIGLPTAAAFASRQKQVIGVDINQHAVDTINRGEIHIVEPDLASVVKTAVEGGFLRASTTPVEADAWLIAVPTPFKGDHEPDMTYVESAARSIAPVLKKGALVILESTSPVGSTEKMAEWLAEMRPDLTFPQQVGEQADVNIAYCPERVLPGQVMVELIKNDRVIGGMTPVCSARASELYKIFLEGECVVTNSRTAEMCKLTENSFRDVNIAFANELSLICADQGINVWELIRLANRHPRVNILQPGPGVGGHCIAVDPWFIVAQNPQQARLIRTAREVNDHKPFWVIDQVKAAVADCLAATDKRASELKIACFGLAFKPNIDDLRESPAMEIAELIAQWHSGETLVVEPNIHQLPKKLTGLCTLAQLDEALATADVLVMLVDHSQFKVINGDNVHQQYVVDAKGVWR”, the “total protein half-life in vivo” value runs as follows: under setting [12], 5.3 ± 0.14 h; under setting [2], 5.1 ± 0.76 h; under setting [3], 4.6415 ± 0.0014 h; under setting [4], 4.11 ± 0.081 h; under setting [5], 2.91 ± 0.71 h; under setting [6], 7.21 ± 1.1 h. The “total protein half-life in vivo” value runs as follows: under setting [7], 9.93 ± 3 h; under setting [8], 5 ± 0.43 h; under setting [9], 8.104 ± 0.048 h; under setting [10], 5.77 ± 0.07 h; under setting [11], 12.5 ± 1.5 h.
